Data reported in patent publication US20030177526A1 (PLANT HEALTH CARE, published 2003).

B1: LexA alone (empty bait vector pVJL11) (other)
chain: MKALTARQQEVFDLIRDHISQTGMPPTRAEIAQRLGFRSPNAAEEHLKALARKGVIEIVSGASRGIRLLQEEEEGLPLVGRVAAGEPLLAQQHIEGHYQVDPSLFKPNADFLLRVSGMSMKDIGIMDGDLLAVHKTQDVRNGQVVVARIDDEVTVKRLKKQGNKVELLPENSEFKPIVVDLRQQSFTIEGLAVGVIRNGDWL
notes: Control

Columns and labels:
[1] = biological target: T1, GAL4 activation domain-harpin fusion (hrpN in prey vector pGAD GH) (yeast; Erwinia amylovora, UniProt Q01099 1-403); assay: yeast two-hybrid, lacZ and HIS3 reporters
T1 construct: range 1-403; also called hrpN-pGAD GH
T1 sequence: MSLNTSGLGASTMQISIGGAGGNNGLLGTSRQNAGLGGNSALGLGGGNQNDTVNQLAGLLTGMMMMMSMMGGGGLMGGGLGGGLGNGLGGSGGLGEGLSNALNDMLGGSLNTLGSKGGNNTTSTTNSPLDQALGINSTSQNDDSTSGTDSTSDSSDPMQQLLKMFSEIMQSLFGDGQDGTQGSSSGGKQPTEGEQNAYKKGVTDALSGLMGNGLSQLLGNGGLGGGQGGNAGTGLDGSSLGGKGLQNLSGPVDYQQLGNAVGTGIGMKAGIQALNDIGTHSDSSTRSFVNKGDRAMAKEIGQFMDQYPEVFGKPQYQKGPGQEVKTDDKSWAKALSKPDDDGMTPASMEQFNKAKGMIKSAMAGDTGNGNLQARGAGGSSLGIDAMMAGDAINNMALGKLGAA

[2] = biological target: T2, GAL4 activation domain-AtHrBP1p fusion (longest 1 kb cDNA insert in pGAD 10) (yeast; Arabidopsis thaliana, UniProt Q9LW57 1-284); assay: yeast two-hybrid, lacZ and HIS3 reporters
T2 construct: Yeast two-hybrid prey; also called AtHrBP1-AD fusion prey
T2 sequence: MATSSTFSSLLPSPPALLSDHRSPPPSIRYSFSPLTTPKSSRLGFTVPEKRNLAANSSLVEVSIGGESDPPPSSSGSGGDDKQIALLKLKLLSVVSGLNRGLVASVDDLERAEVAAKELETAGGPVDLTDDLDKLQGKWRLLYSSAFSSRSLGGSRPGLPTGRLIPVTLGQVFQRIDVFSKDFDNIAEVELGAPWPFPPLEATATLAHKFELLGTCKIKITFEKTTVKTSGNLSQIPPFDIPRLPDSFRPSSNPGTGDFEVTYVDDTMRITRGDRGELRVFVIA

[3] = biological target: T3, LexA-harpin fusion (HrpN of Erwinia amylovora in bait vector pVJL11) (Erwinia amylovora, UniProt Q01099 1-403); assay: yeast two-hybrid, harpin as bait
T3 construct: range 1-403; also called HrpN-pVJL11; lexA-harpin fusion protein; not shown: prokaryotic LexA protein (DNA-BD encoded in bait vector pVJL11)
T3 sequence: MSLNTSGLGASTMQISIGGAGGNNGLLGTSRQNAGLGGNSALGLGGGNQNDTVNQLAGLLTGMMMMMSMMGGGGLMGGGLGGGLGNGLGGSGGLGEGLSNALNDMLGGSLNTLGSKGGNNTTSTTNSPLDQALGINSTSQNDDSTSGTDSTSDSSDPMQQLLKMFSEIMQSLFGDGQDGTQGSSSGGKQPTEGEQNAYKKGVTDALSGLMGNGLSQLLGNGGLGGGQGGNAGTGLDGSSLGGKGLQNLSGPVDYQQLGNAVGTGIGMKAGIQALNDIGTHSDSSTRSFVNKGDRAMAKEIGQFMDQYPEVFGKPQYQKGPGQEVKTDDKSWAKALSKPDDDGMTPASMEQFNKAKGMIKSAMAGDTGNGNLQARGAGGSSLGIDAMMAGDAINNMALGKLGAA

[4] = biological target: T4, LexA fused to harpin 137-180 amino acids (Erwinia amylovora, UniProt Q01099 137-180); assay: yeast two-hybrid, harpin fragment as bait
T4 construct: also called harpin fragment that contains the second HR domain; not shown: prokaryotic LexA protein (bait vector)
T4 chain (looked up): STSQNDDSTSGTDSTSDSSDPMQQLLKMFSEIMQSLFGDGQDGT

[5] = biological target: T5, LexA fused to harpin 210-403 amino acids (Erwinia amylovora, UniProt Q01099 210-403); assay: yeast two-hybrid, lacZ and HIS3 reporters
T5 construct: range 210-403; not shown: prokaryotic LexA protein (bait vector)
T5 sequence: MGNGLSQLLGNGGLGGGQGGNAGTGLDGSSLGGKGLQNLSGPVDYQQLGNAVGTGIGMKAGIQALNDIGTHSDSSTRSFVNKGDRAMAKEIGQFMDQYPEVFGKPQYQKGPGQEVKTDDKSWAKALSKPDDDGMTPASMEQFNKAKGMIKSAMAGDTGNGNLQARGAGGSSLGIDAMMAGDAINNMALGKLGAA

[6] = biological target: B1; assay: yeast two-hybrid, lacZ and HIS3 reporters
[7] = biological target: T3, LexA-harpin fusion (HrpN of Erwinia …); assay: yeast two-hybrid, lacZ and HIS3 reporters
[8] = biological target: T6, LexA-AtHrBP1p fusion (AtHrBP1 in bait vector pVJL11) (Arabidopsis thaliana, UniProt Q9LW57 1-284); assay: yeast two-hybrid, lacZ and HIS3 reporters
T6 construct: Yeast two-hybrid bait, opposite orientation; also called AtHrBP1-pVJL11; AtHrBP1p fused with the DNA-BD; not shown: prokaryotic LexA protein (DNA-BD encoded in bait vector pVJL11)
T6 sequence: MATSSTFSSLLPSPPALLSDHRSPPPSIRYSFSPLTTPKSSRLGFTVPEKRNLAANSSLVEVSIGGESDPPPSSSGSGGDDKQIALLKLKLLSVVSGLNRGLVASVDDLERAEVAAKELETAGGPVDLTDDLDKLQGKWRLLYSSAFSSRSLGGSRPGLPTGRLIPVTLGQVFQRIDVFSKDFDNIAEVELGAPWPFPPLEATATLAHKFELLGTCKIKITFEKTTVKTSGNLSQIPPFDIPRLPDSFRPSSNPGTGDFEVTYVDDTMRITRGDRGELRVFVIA

B1: no binding [1]; no binding [2].

B2: GAL4 activation domain-rice HrBP1p (R6p) fusion (receptor)
chain: VAALKVKLLSAVSGLNRGLAGSQEDLDRADAAARELEAAAGGGPVDLERDVDKLQGRWRLVYSSAFSSRTLGGSRPGPPTGRLLPITLGQVFQRIDVVSKDFDNIVDVELGAPWPLPPVELTATLAHKFEIIGTSSIKITFDKTTVKTKGNLSQLPPLEVPRIPDNLRPPSNTGSGEFEVTYLDGDTRITRGDRGELRVFVIS
notes: Partial cDNA clone from a yeast two-hybrid screen with harpin as bait; not full length
B2: binds [3]; binds [4]; no binding [5]. B2: no binding [6].

B3: GAL4 activation domain alone (empty prey vector pGAD GH) (other)
chain: ANFNQSGNIADSSLSFTFTNSSNGPNLITTQTNSQALSQPIASSNVHDNFMNNEITASKIDDGNNSKPLSPGWTDQTAYNAFGITTGMFNTTTMDDVYNYLFDDEDTPPNPKKE
notes: Control
B3: no binding [7]; no binding [8].
